B1: library; numbered along this chain (parent)
chain: MRKPRAAVGSGHRKQAASQEGRQKHAKNNSQAKPSACDGLARQPEEVVLQASVSSYHLFRDVAEVTAFRGSLLSWYDQEKRDLPWRRRAEDEMDLDRRAYAVWVSEVMLQQTQVATVINYYTGWMQKWPTLQDLASASLEEVNQLWAGLGYYSRGRRLQEGARKVVEELGGHMPRTAETLQQLLPGVGRYTAGAIASIAFGQATGVVDGNVARVLCRVRAIGADPSSTLVSQQLWGLAQQLVDPARPGDFNQAAMELGATVCTPQRPLCSQCPVESLCRARQRVEQEQLLASGSLSGSPDVEECAPNTGQCHLCLPPSEPWDQTLGVVNFPRKASRKPPREESSATCVLEQPGALGAQILLVQRPNSGLLAGLWEFPSVTWEPSEQLQRKALLQELQRWAGPLPATHLRHLGEVVHTFSHIKLTYQVYGLALEGQTPVTTVPPGARWLTQEEFHTAAVSTAMKKVFRVYQGQQPGTCMGSKRSQVSSPCSRKKPRMGQQVLDNFFRSHISTDAHSLNSAAQ

Variants of: B1
Test: 8OG:A repair function score (normalized; synonymous = 0, nonsense = -1) (normalized log-likelihood score); higher = more repair activity (WT-like)
Conditions: with 8OG:A DNA repair reporter (GFP) in HEK-293 MUTYH KO cells
Experimental: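 Saturation mutagenesis (NNN codon scan) of the MUTYH cDNA (521-aa nuclear isoform NM_001048174.1 / NP_001041639), stably expressed under doxycycline induction in HEK-293 MUTYH knockout cells. Cells were co-transfected with an 8OG:A-bearing GFP repair reporter plus mCherry and sorted 72 h later into GFP+ and GFP− bins, three replicates per tile. The Rosace log2 enrichment (GFP+ vs GFP−) was converted per tile to a normalized function score with synonymous variants centered at 0 and nonsense variants (codons 1-471) at -1; low-abundance variants were removed.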

| Variant | 8OG:A repair function score |
| --- | --- |
| MRKPRFAVGSGHRKQAASQEGRQKHAKNNSQAKPSACDGLARQPEEVVLQASVSSYHLFRDVAEVTAFRGSLLSWYDQEKRDLPWRRRAEDEMDLDRRAYAVWVSEVMLQQTQVATVINYYTGWMQKWPTLQDLASASLEEVNQLWAGLGYYSRGRRLQEGARKVVEELGGHMPRTAETLQQLLPGVGRYTAGAIASIAFGQATGVVDGNVARVLCRVRAIGADPSSTLVSQQLWGLAQQLVDPARPGDFNQAAMELGATVCTPQRPLCSQCPVESLCRARQRVEQEQLLASGSLSGSPDVEECAPNTGQCHLCLPPSEPWDQTLGVVNFPRKASRKPPREESSATCVLEQPGALGAQILLVQRPNSGLLAGLWEFPSVTWEPSEQLQRKALLQELQRWAGPLPATHLRHLGEVVHTFSHIKLTYQVYGLALEGQTPVTTVPPGARWLTQEEFHTAAVSTAMKKVFRVYQGQQPGTCMGSKRSQVSSPCSRKKPRMGQQVLDNFFRSHISTDAHSLNSAAQ [A6F] | 0.0517 |
| MRKPRKAVGSGHRKQAASQEGRQKHAKNNSQAKPSACDGLARQPEEVVLQASVSSYHLFRDVAEVTAFRGSLLSWYDQEKRDLPWRRRAEDEMDLDRRAYAVWVSEVMLQQTQVATVINYYTGWMQKWPTLQDLASASLEEVNQLWAGLGYYSRGRRLQEGARKVVEELGGHMPRTAETLQQLLPGVGRYTAGAIASIAFGQATGVVDGNVARVLCRVRAIGADPSSTLVSQQLWGLAQQLVDPARPGDFNQAAMELGATVCTPQRPLCSQCPVESLCRARQRVEQEQLLASGSLSGSPDVEECAPNTGQCHLCLPPSEPWDQTLGVVNFPRKASRKPPREESSATCVLEQPGALGAQILLVQRPNSGLLAGLWEFPSVTWEPSEQLQRKALLQELQRWAGPLPATHLRHLGEVVHTFSHIKLTYQVYGLALEGQTPVTTVPPGARWLTQEEFHTAAVSTAMKKVFRVYQGQQPGTCMGSKRSQVSSPCSRKKPRMGQQVLDNFFRSHISTDAHSLNSAAQ [A6K] | -0.0201 |
| MRKPRIAVGSGHRKQAASQEGRQKHAKNNSQAKPSACDGLARQPEEVVLQASVSSYHLFRDVAEVTAFRGSLLSWYDQEKRDLPWRRRAEDEMDLDRRAYAVWVSEVMLQQTQVATVINYYTGWMQKWPTLQDLASASLEEVNQLWAGLGYYSRGRRLQEGARKVVEELGGHMPRTAETLQQLLPGVGRYTAGAIASIAFGQATGVVDGNVARVLCRVRAIGADPSSTLVSQQLWGLAQQLVDPARPGDFNQAAMELGATVCTPQRPLCSQCPVESLCRARQRVEQEQLLASGSLSGSPDVEECAPNTGQCHLCLPPSEPWDQTLGVVNFPRKASRKPPREESSATCVLEQPGALGAQILLVQRPNSGLLAGLWEFPSVTWEPSEQLQRKALLQELQRWAGPLPATHLRHLGEVVHTFSHIKLTYQVYGLALEGQTPVTTVPPGARWLTQEEFHTAAVSTAMKKVFRVYQGQQPGTCMGSKRSQVSSPCSRKKPRMGQQVLDNFFRSHISTDAHSLNSAAQ [A6I] | -0.177 |
| MRKPRGAVGSGHRKQAASQEGRQKHAKNNSQAKPSACDGLARQPEEVVLQASVSSYHLFRDVAEVTAFRGSLLSWYDQEKRDLPWRRRAEDEMDLDRRAYAVWVSEVMLQQTQVATVINYYTGWMQKWPTLQDLASASLEEVNQLWAGLGYYSRGRRLQEGARKVVEELGGHMPRTAETLQQLLPGVGRYTAGAIASIAFGQATGVVDGNVARVLCRVRAIGADPSSTLVSQQLWGLAQQLVDPARPGDFNQAAMELGATVCTPQRPLCSQCPVESLCRARQRVEQEQLLASGSLSGSPDVEECAPNTGQCHLCLPPSEPWDQTLGVVNFPRKASRKPPREESSATCVLEQPGALGAQILLVQRPNSGLLAGLWEFPSVTWEPSEQLQRKALLQELQRWAGPLPATHLRHLGEVVHTFSHIKLTYQVYGLALEGQTPVTTVPPGARWLTQEEFHTAAVSTAMKKVFRVYQGQQPGTCMGSKRSQVSSPCSRKKPRMGQQVLDNFFRSHISTDAHSLNSAAQ [A6G] | 0.0165 |
| MRKPRLAVGSGHRKQAASQEGRQKHAKNNSQAKPSACDGLARQPEEVVLQASVSSYHLFRDVAEVTAFRGSLLSWYDQEKRDLPWRRRAEDEMDLDRRAYAVWVSEVMLQQTQVATVINYYTGWMQKWPTLQDLASASLEEVNQLWAGLGYYSRGRRLQEGARKVVEELGGHMPRTAETLQQLLPGVGRYTAGAIASIAFGQATGVVDGNVARVLCRVRAIGADPSSTLVSQQLWGLAQQLVDPARPGDFNQAAMELGATVCTPQRPLCSQCPVESLCRARQRVEQEQLLASGSLSGSPDVEECAPNTGQCHLCLPPSEPWDQTLGVVNFPRKASRKPPREESSATCVLEQPGALGAQILLVQRPNSGLLAGLWEFPSVTWEPSEQLQRKALLQELQRWAGPLPATHLRHLGEVVHTFSHIKLTYQVYGLALEGQTPVTTVPPGARWLTQEEFHTAAVSTAMKKVFRVYQGQQPGTCMGSKRSQVSSPCSRKKPRMGQQVLDNFFRSHISTDAHSLNSAAQ [A6L] | 0.01 |
| MRKPRMAVGSGHRKQAASQEGRQKHAKNNSQAKPSACDGLARQPEEVVLQASVSSYHLFRDVAEVTAFRGSLLSWYDQEKRDLPWRRRAEDEMDLDRRAYAVWVSEVMLQQTQVATVINYYTGWMQKWPTLQDLASASLEEVNQLWAGLGYYSRGRRLQEGARKVVEELGGHMPRTAETLQQLLPGVGRYTAGAIASIAFGQATGVVDGNVARVLCRVRAIGADPSSTLVSQQLWGLAQQLVDPARPGDFNQAAMELGATVCTPQRPLCSQCPVESLCRARQRVEQEQLLASGSLSGSPDVEECAPNTGQCHLCLPPSEPWDQTLGVVNFPRKASRKPPREESSATCVLEQPGALGAQILLVQRPNSGLLAGLWEFPSVTWEPSEQLQRKALLQELQRWAGPLPATHLRHLGEVVHTFSHIKLTYQVYGLALEGQTPVTTVPPGARWLTQEEFHTAAVSTAMKKVFRVYQGQQPGTCMGSKRSQVSSPCSRKKPRMGQQVLDNFFRSHISTDAHSLNSAAQ [A6M] | -0.168 |
| MRKPRNAVGSGHRKQAASQEGRQKHAKNNSQAKPSACDGLARQPEEVVLQASVSSYHLFRDVAEVTAFRGSLLSWYDQEKRDLPWRRRAEDEMDLDRRAYAVWVSEVMLQQTQVATVINYYTGWMQKWPTLQDLASASLEEVNQLWAGLGYYSRGRRLQEGARKVVEELGGHMPRTAETLQQLLPGVGRYTAGAIASIAFGQATGVVDGNVARVLCRVRAIGADPSSTLVSQQLWGLAQQLVDPARPGDFNQAAMELGATVCTPQRPLCSQCPVESLCRARQRVEQEQLLASGSLSGSPDVEECAPNTGQCHLCLPPSEPWDQTLGVVNFPRKASRKPPREESSATCVLEQPGALGAQILLVQRPNSGLLAGLWEFPSVTWEPSEQLQRKALLQELQRWAGPLPATHLRHLGEVVHTFSHIKLTYQVYGLALEGQTPVTTVPPGARWLTQEEFHTAAVSTAMKKVFRVYQGQQPGTCMGSKRSQVSSPCSRKKPRMGQQVLDNFFRSHISTDAHSLNSAAQ [A6N] | -0.0265 |
| MRKPREAVGSGHRKQAASQEGRQKHAKNNSQAKPSACDGLARQPEEVVLQASVSSYHLFRDVAEVTAFRGSLLSWYDQEKRDLPWRRRAEDEMDLDRRAYAVWVSEVMLQQTQVATVINYYTGWMQKWPTLQDLASASLEEVNQLWAGLGYYSRGRRLQEGARKVVEELGGHMPRTAETLQQLLPGVGRYTAGAIASIAFGQATGVVDGNVARVLCRVRAIGADPSSTLVSQQLWGLAQQLVDPARPGDFNQAAMELGATVCTPQRPLCSQCPVESLCRARQRVEQEQLLASGSLSGSPDVEECAPNTGQCHLCLPPSEPWDQTLGVVNFPRKASRKPPREESSATCVLEQPGALGAQILLVQRPNSGLLAGLWEFPSVTWEPSEQLQRKALLQELQRWAGPLPATHLRHLGEVVHTFSHIKLTYQVYGLALEGQTPVTTVPPGARWLTQEEFHTAAVSTAMKKVFRVYQGQQPGTCMGSKRSQVSSPCSRKKPRMGQQVLDNFFRSHISTDAHSLNSAAQ [A6E] | 0.137 |
| MRKPRCAVGSGHRKQAASQEGRQKHAKNNSQAKPSACDGLARQPEEVVLQASVSSYHLFRDVAEVTAFRGSLLSWYDQEKRDLPWRRRAEDEMDLDRRAYAVWVSEVMLQQTQVATVINYYTGWMQKWPTLQDLASASLEEVNQLWAGLGYYSRGRRLQEGARKVVEELGGHMPRTAETLQQLLPGVGRYTAGAIASIAFGQATGVVDGNVARVLCRVRAIGADPSSTLVSQQLWGLAQQLVDPARPGDFNQAAMELGATVCTPQRPLCSQCPVESLCRARQRVEQEQLLASGSLSGSPDVEECAPNTGQCHLCLPPSEPWDQTLGVVNFPRKASRKPPREESSATCVLEQPGALGAQILLVQRPNSGLLAGLWEFPSVTWEPSEQLQRKALLQELQRWAGPLPATHLRHLGEVVHTFSHIKLTYQVYGLALEGQTPVTTVPPGARWLTQEEFHTAAVSTAMKKVFRVYQGQQPGTCMGSKRSQVSSPCSRKKPRMGQQVLDNFFRSHISTDAHSLNSAAQ [A6C] | -0.117 |
| MRKPRDAVGSGHRKQAASQEGRQKHAKNNSQAKPSACDGLARQPEEVVLQASVSSYHLFRDVAEVTAFRGSLLSWYDQEKRDLPWRRRAEDEMDLDRRAYAVWVSEVMLQQTQVATVINYYTGWMQKWPTLQDLASASLEEVNQLWAGLGYYSRGRRLQEGARKVVEELGGHMPRTAETLQQLLPGVGRYTAGAIASIAFGQATGVVDGNVARVLCRVRAIGADPSSTLVSQQLWGLAQQLVDPARPGDFNQAAMELGATVCTPQRPLCSQCPVESLCRARQRVEQEQLLASGSLSGSPDVEECAPNTGQCHLCLPPSEPWDQTLGVVNFPRKASRKPPREESSATCVLEQPGALGAQILLVQRPNSGLLAGLWEFPSVTWEPSEQLQRKALLQELQRWAGPLPATHLRHLGEVVHTFSHIKLTYQVYGLALEGQTPVTTVPPGARWLTQEEFHTAAVSTAMKKVFRVYQGQQPGTCMGSKRSQVSSPCSRKKPRMGQQVLDNFFRSHISTDAHSLNSAAQ [A6D] | -0.15 |
| MRKPRHAVGSGHRKQAASQEGRQKHAKNNSQAKPSACDGLARQPEEVVLQASVSSYHLFRDVAEVTAFRGSLLSWYDQEKRDLPWRRRAEDEMDLDRRAYAVWVSEVMLQQTQVATVINYYTGWMQKWPTLQDLASASLEEVNQLWAGLGYYSRGRRLQEGARKVVEELGGHMPRTAETLQQLLPGVGRYTAGAIASIAFGQATGVVDGNVARVLCRVRAIGADPSSTLVSQQLWGLAQQLVDPARPGDFNQAAMELGATVCTPQRPLCSQCPVESLCRARQRVEQEQLLASGSLSGSPDVEECAPNTGQCHLCLPPSEPWDQTLGVVNFPRKASRKPPREESSATCVLEQPGALGAQILLVQRPNSGLLAGLWEFPSVTWEPSEQLQRKALLQELQRWAGPLPATHLRHLGEVVHTFSHIKLTYQVYGLALEGQTPVTTVPPGARWLTQEEFHTAAVSTAMKKVFRVYQGQQPGTCMGSKRSQVSSPCSRKKPRMGQQVLDNFFRSHISTDAHSLNSAAQ [A6H] | -0.0145 |
| MRYPRAAVGSGHRKQAASQEGRQKHAKNNSQAKPSACDGLARQPEEVVLQASVSSYHLFRDVAEVTAFRGSLLSWYDQEKRDLPWRRRAEDEMDLDRRAYAVWVSEVMLQQTQVATVINYYTGWMQKWPTLQDLASASLEEVNQLWAGLGYYSRGRRLQEGARKVVEELGGHMPRTAETLQQLLPGVGRYTAGAIASIAFGQATGVVDGNVARVLCRVRAIGADPSSTLVSQQLWGLAQQLVDPARPGDFNQAAMELGATVCTPQRPLCSQCPVESLCRARQRVEQEQLLASGSLSGSPDVEECAPNTGQCHLCLPPSEPWDQTLGVVNFPRKASRKPPREESSATCVLEQPGALGAQILLVQRPNSGLLAGLWEFPSVTWEPSEQLQRKALLQELQRWAGPLPATHLRHLGEVVHTFSHIKLTYQVYGLALEGQTPVTTVPPGARWLTQEEFHTAAVSTAMKKVFRVYQGQQPGTCMGSKRSQVSSPCSRKKPRMGQQVLDNFFRSHISTDAHSLNSAAQ [K3Y] | 0.137 |
